Earlier results, collected in PMC4624693.

Tests used:
Glu24 = Glu24 (UniProt position 1000, VCMHIESLDSY); assay: NMR; conditions: free, folded protein
His22 = His22 (UniProt position 998, GGVCMHIESLD); assay: NMR; conditions: free, folded protein
Asp40 = Asp40 (UniProt position 1016, IGYSGDRCQTR); assay: NMR; conditions: free, folded protein
Asp46 = Asp46 (UniProt position 1022, RCQTRDLRWWE); assay: NMR; conditions: free, folded protein
Asp27 = Asp27 (UniProt position 1003, HIESLDSYTCN); assay: NMR; conditions: free, folded protein
Asp11 = Asp11 (UniProt position 987, CPSSYDGYCLN); assay: NMR; conditions: free, folded protein
Cterm53 = Cterm53 (UniProt position 1029, RWWELRHAGYG); assay: NMR; conditions: free, folded protein
Glu51 = Glu51 (UniProt position 1027, DLRWWELRHAG); assay: NMR; conditions: free, folded protein
Nterm1 = Nterm1 (UniProt position 977, HHLDRNSYPGC); assay: NMR; conditions: free, folded protein
Lys66 = Lys66 (UniProt position 148, FTKKMKENAKK)
Asp = conditions: free peptide

For “Epidermal growth factor (mouse EGF) (Mus musculus)”, the pKa (Glu24) is listed as 4.1±0.1, the pKa (His22) is listed as 6.8±0.1 and the pKa (Asp40) is listed as 3.6±0.1. For the same molecule, the pKa (Asp46) was 3.8±0.1, the pKa (Asp27) was 4.0±0.1 and the pKa (Asp11) was 3.9±0.05. For the same molecule, the pKa (Cterm53) was 3.5±0.1, the pKa (Glu51) was ~4 and the pKa (Nterm1) was 7.7±0.1.

For “Staphylococcal nuclease Delta+PHS/V66K (Staphylococcus aureus; V66K; Delta+PHS background (substitutions not listed in the article))”, the pKa (Lys66) is listed as 5.6.

In the case of SDNKTYG, the pKa (Asp) is given as 3.6.
